Experimental data from US20220064279A1 (AstraZeneca / MedImmune, published 2022).

Target: endogenous LIF of U-251 glioma cells (human, UniProt P15018 23-202)
Assay: cell-based or functional assay

endogenous LIF of U-251 glioma cells, sequence (P15018 23-202 limits assumed): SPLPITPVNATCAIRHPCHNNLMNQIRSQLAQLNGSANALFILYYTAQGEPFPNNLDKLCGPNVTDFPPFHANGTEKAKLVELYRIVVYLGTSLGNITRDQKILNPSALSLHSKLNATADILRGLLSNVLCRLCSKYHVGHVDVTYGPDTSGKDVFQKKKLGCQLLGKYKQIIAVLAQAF

B1: h5D8 (humanized 5D8, H2L2) (antibody, V domains shown)
VH: QVQLQESGGGLVKPGGSLRLSCAASGFTFSHAWMHWVRQAPGKGLEWVGQIKAKSDDYATYYAESVKGRFTISRDDSKNTLYLQMNSLKTEDTAVYYCTCWEWDLDFWGQGTMVTVSS
VL: DIVMTQTPLSSPVTLGQPASISCRSSQSLLDSDGHTYLNWLQQRPGQPPRLLIYSVSNLESGVPDRFSGSGAGTDFTLKISRVEAEDVGVYYCMQATHAPPYTFGQGTKLEIK
  IC50 for biological inhibition (pSTAT3, MSD assay, serum starved U-251 cells): 490 picomolar
